Laboratory results as given in article doi:10.1101/205575.

Tests used:
[1] = system: AsCpf1 (Cas12a) (Acidaminococcus sp.?); assay: smFRET titration; conditions: amino-dT in non-target strand, pH 8.0 ([…]) or pH 7.0 ([…]
FnCpf1 (Cas12a) = assay: smFRET titration; conditions: amino-dT in non-target strand, pH 8.0 ([…]) or pH 7.0 ([…]

Q: How did the Kd [1] turn out when “cognate DNA target (nPD=0) with Cy5 guide-RNA” was run?
A: Its Kd is 0.1 nM.

Q: What about the Kd (FnCpf1 (Cas12a)) of the same substance?
A: The Kd was 0.27 nM.
